PMC11457862

T1: biotinylated human IL-2Rβ ectodomain (amino acids 1-214) (human) (UniProt P14784)
T1 sequence (chain, biotin on the biotin acceptor peptide (BirA ligase)): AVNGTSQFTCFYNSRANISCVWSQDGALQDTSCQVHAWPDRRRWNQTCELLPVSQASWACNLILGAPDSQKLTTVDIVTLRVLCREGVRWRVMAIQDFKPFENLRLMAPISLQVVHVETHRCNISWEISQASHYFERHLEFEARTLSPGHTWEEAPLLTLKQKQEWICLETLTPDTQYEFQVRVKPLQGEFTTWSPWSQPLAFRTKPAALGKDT


Legend:
[1] = molecular target: human IL-2 (amino acids 1-133), soluble, P60568; experiment: yeast display titration; details: chain shown with the change
[2] = molecular target: human IL-2 (amino acids 1-133), soluble, P60568; experiment: yeast display competition (IL-2 binding in the presence of soluble IL-2Rα competitor); details: chain shown with the change; IL-2 5 nM; IC50 is the concentration of soluble IL-2Rα competitor (Dm27)
[3] = molecular target: biotinylated human IL-2Rα ectodomain (amino acids 1-217) (human); experiment: BLI; same set-up as a1; equilibrium titration of the response at the end of the association phase, first-order fit (Figures 2 and 3, Supplemental Table 1)
[4] = molecular target: T1, biotinylated human IL-2Rβ ectodomain (amino acids 1-214) (human); experiment: as above
[5] = molecular target: T1, biotinylated human IL-2Rβ ectodomain (amino acids 1-214) (human); experiment: BLI; same set-up as a3; equilibrium titration, first-order fit (Supplemental Figure 4A-C, Supplemental Table 4)

Binder	EC50 [1] [nM]	IC50 [2] [nM]	Kd [3] [nM]	Kd [4] [nM]	Kd [5] [nM]
yeast-displayed 602 scFv T101S; F225S; G227D (protein) chain 1: EVQLQESGPGLVAPSQSLSITCTVSGFSLTNYDISWIRQPPGKGLEWLGVIWTGGGTNYNSGFMSRLSITKDNSKSQVFLKMNSLQTDDTAIYYCVRQGRSPYWGQGTLVTVSA chain 2: DIQVTQSPSSLSVSLGDRVTITCKASKDIYNRLAWYQQKPGNAPRLLISGATSLETGVPSRFSGSGSGKDYTLTITSLQTEDVATYYCQQSWDTPYTFGGGTKLEIK	0.4	1120	–	–	–
anti-human IL-2 antibody 602 (MAB602), recombinant mouse IgG2a kappa (antibody, V domains shown) VH: EVQLQESGPGLVAPSQSLSITCTVSGFSLTNYDISWIRQPPGKGLEWLGVIWTGGGTNYNSGFMSRLSITKDNSKSQVFLKMNSLQTDDTAIYYCVRQGRTPYWGQGTLVTVSA VL: DIQVTQSPSSLSVSLGDRVTITCKASKDIYNRLAWYQQKPGNAPRLLISGATSLETGVPSRFSGSGSGKDYTLTITSLQTEDVATYYCQQFWGTPYTFGGGTKLEIK	–	–	> 2000	> 2000	> 2000
